These results are taken from patent US8771644B2, “Imaging probes” (Sanofi, priority 2007, dated 2014).

For orientation: Km means the substrate concentration at which the rate is half of its maximum. As usually defined, the Vmax is the top rate of the reaction or transport when substrate is in excess. As a reminder, the kcat/Km is the turnover number divided by the Michaelis constant. By kcat is commonly meant the number of substrate molecules converted per active site and unit of time at saturation.

Assay type in all cases: biochemical
Substrate in data set [1]: CN(C)c1ccc(/N=N/c2ccc(C(=O)NCCCC[C@H](NC(=O)[C@H](CCC(=O)NCCNc3cccc4c(S(=O)(=O)O)cccc34)NC(=O)[C@H](CC3CCCCC3)NC(=O)N3CCOCC3)C(=O)O)cc2)cc1
Nature of the data set: in vitro activity assay (fluorescence, substrate cleavage) with Cath K. To be noted: other: Cath K; measurement performed at pH 7.5; pH 7.5; 37.0 °C. Here is the method:
(§1) […] The substrates were solved in DMSO and added to enzyme solution with a final concentration of 50 μM.
(§2) Fluorescence was measured with an Tecan SAFIRE II spectrometer (excitation wavelength: 336 nm; emission wavelength: 490 nm; excitation band: 10.0 nm; emission band: 10.0 nm; amplification (manual): 90).

Substrate in data set [2]: CN(C)c1ccc2c(c1)Oc1cc(N(C)C)ccc1C21OC(=O)c2cc(C(=O)NCC[C@H](NC(=O)[C@H](CC3CCCCC3)NC(=O)N3CCOCC3)C(=O)NCCNC(=O)c3ccc(-c4c5ccc(=O)cc-5oc5cc(O)ccc45)c(C(=O)O)c3)ccc21
The data set is described as above. To be noted: other: Cath K; measurement performed at pH 5.5; pH 5.5; 37.0 °C. Here is the method: as §1, §2

Substrate in data set [3]: CN(C)c1ccc(/N=N/c2ccc(C(=O)NCCCC[C@H](NC(=O)[C@H](CCC(=O)NCCNc3cccc4c(S(=O)(=O)O)cccc34)NC(=O)[C@H](CC3CCCCC3)NC(=O)N3CCOCC3)C(=O)O)cc2)cc1
In words: in vitro activity assay (fluorescence, substrate cleavage) with Cath S. To be noted: other: Cath S, measurement performed at pH 7.5, 37.0 °C.

Substrate in data set [4]: CN(C)c1ccc(/N=N/c2ccc(C(=O)NCCCC[C@H](NC(=O)[C@H](CCC(=O)NCCNc3cccc4c(S(=O)(=O)O)cccc34)NC(=O)[C@H](CC3CCCCC3)NC(=O)N3CCOCC3)C(=O)O)cc2)cc1
Nature of the data set: in vitro activity assay (fluorescence, substrate cleavage) with Papain. Conditions: other: Papain; measurement performed at pH 7.5; pH 7.5; 37.0 °C. Here is the method: as §1, §2

Substrate in data set [5]: CN(C)c1ccc2c(c1)Oc1cc(N(C)C)ccc1C21OC(=O)c2cc(C(=O)NCC[C@H](NC(=O)[C@H](CC3CCCCC3)NC(=O)N3CCOCC3)C(=O)NCCNC(=O)c3ccc(-c4c5ccc(=O)cc-5oc5cc(O)ccc45)c(C(=O)O)c3)ccc21
The data set is described as above. To be noted: other: Papain; measurement performed at pH 5.5; pH 5.5; 37.0 °C. Here is the method:
as §1, §2

B1: Cath K (Homo sapiens) (protein)
chain: APDSVDYRKKGYVTPVKNQGQCGSCWAFSSVGALEGQLKKKTGKLLNLSPQNLVDCVSENDGCGGGYMTNAFQYVQKNRGIDSEDAYPYVGQEESCMYNPTGKAAKCRGYREIPEGNEKALKRAVARVGPVSVAIDASLTSFQFYSKGVYYDESCNSDNLNHAVLAVGYGIQKGNKHWIIKNSWGENWGNKGYILMARNKNNACGIANLASFPKM
In the case of B1, in data set [1], the Michaelis-Menten constant (Km) came out at 190 µM, the Vmax came to 0.018 µmol/min and the specificity constant (kcat/Km) worked out at 27 M⁻¹ s⁻¹. Further, in data set [2], the Km worked out at 35 µM, the maximum rate (Vmax) is 0.438 µmol/min and the kcat was determined as 0.192 s⁻¹.

B2: Cath S (Homo sapiens) (protein)
chain: LPDSVDWREKGCVTEVKYQGSCGACWAFSAVGALEAQLKLKTGKLVSLSAQNLVDCSTEKYGNKGCNGGFMTTAFQYIIDNKGIDSDASYPYKAMDQKCQYDSKYRAATCSKYTELPYGREDVLKEAVANKGPVSVGVDARHPSFFLYRSGVYYEPSCTQNVNHGVLVVGYGDLNGKEYWLVKNSWGHNFGEEGYIRMARNKGNHCGIASFPSYPEI
On to B2, for which, in data set [3], the Michaelis constant (Km) turned out to be 32 µM, the Vmax is 0.144 µmol/min, the catalytic constant (kcat) is 0.11 s⁻¹ and the specificity constant (kcat/Km) was 3260 M⁻¹ s⁻¹.

B3: Papain (Carica papaya) (protein)
chain: IPEYVDWRQKGAVTPVKNQGSCGSCWAFSAVVTIEGIIKIRTGNLNEYSEQELLDCDRRSYGCNGGYPWSALQLVAQYGIHYRNTYPYEGVQRYCRSREKGPYAAKTDGVRQVQPYNEGALLYSIANQPVSVVLEAAGKDFQLYRGGIFVGPCGNKVDHAVAAVGYGPNYILIKNSWGTGWGENGYIRIKRGTGNSYGVCGLYTSSFYPVKN
As to B3, in data set [4], the Michaelis constant (Km) is 520 µM, the Vmax stood at 0.096 µmol/min, the turnover number (kcat) was 0.1 s⁻¹ and the kcat/Km was determined as 273 M⁻¹ s⁻¹. Also, in data set [5], the Km turned out to be 6.3 µM, the maximal velocity (Vmax) was 0.0024 µmol/min and the kcat amounted to 0.002 s⁻¹.
